US12427212B2, “Nectin-4 binding miniproteins, conjugates and uses thereof” (Aktis Oncology, Inc., priority 2023, dated 2025)
Where two headings read alike, the source gives them in different places. Bridges are numbered along the chain shown (N, C = ends). The star is where a group is joined. DOTA = O=C(O)CN1CCN(CC(=O)O)CCN(CC(=O)*)CCN(CC(=O)O)CC1; PEG4 = NCCOCCOCCOCCOCCC(=O)O

Key:
[1] = previously published; cited from earlier work
[2] = system: HT-1376-cells ("Parental", which express Nectin-4); assay: In vivo efficacy in cell-line derived xenograft (CDX) model, HT-1376 parental; set-up: species or system mouse; conditions: 3 mg/kg IV QWx3; versus vehicle
Protocol: In vivo efficacy study experiments were performed in tumor bearing athymic nude mice. […] Tumors were monitored for a minimum of 14 days prior to group stratification and study initiation dates.
Dose measurements for a sample injected dose were measured and confirmed on a gamma counter and corrected for decay. EV doses were calculated based on mouse weights and liquid concentration of prepared material. Indicated doses of vehicle, EV or radiolabeled C251 were prepared corresponding to the indicated administered dose levels per group. Doses were administered via tail vein injection while restrained and awake.
Animal monitoring: Tumor volume (caliper measurement) and body weight measurements for enrolled mice were performed twice a week for an initial planned monitoring period of 8 weeks. More frequent gross observations of mice were performed.
Hunan endpoints: Mice remained on study until they reached the end of the 8-week monitoring period or a number of pre-defined humane endpoints, including: • 1. An increase in tumor volume size that exceeds >1500 mm^3, or 20 mm in one dimension, or tumor becomes ulcerated or necrotic. • 2. A decrease in body weight ≥20% from maximum recorded weight. • 3. Any signs of pain or distress (i.e., consistent hunched posture, rough coat, squinted eyes, slowed gait). • 4. Tumors that compromise mobility or ability to eat or drink. • 5. BCS score ≤2. […]

Nectin-4 = target: T1, Nectin-4 (Homo sapiens, UniProt Q96NY8); conditions: cited from earlier work
T1 sequence (Q96NY8 32-510): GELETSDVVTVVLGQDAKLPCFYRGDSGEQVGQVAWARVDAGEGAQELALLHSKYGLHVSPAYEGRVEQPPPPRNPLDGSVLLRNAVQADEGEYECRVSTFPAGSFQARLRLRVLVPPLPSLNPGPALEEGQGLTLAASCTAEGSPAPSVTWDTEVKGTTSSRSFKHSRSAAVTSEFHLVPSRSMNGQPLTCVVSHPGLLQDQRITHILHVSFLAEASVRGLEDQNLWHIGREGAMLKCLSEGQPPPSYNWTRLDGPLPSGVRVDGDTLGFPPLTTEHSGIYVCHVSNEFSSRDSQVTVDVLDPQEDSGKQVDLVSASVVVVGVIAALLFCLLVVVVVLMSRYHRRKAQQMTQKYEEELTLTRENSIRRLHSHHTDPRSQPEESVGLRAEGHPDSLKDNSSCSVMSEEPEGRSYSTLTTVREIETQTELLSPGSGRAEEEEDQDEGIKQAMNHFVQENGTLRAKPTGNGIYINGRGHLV

[3] = system: HT-1376 urothelial cancer cells; assay: Radioligand binding of lutetium-177 radioconjugates, saturation and kinetic analysis; set-up: species or system human; conditions: lutetium-177 radioconjugates of PEG4-DOTA compounds, HT-1376 cells, global fit of association and dissociation
Protocol: Radioligand binding was performed in HT-1376 urothelial cancer cells by method of saturation. Cells were seeded at 20,000 cells per well in 96-well format 48 h prior to assay. Lutetium-177-labeled radioconjugates of C215 and C117 were incubated with cells at 4° C. for 1 h at various increasing concentrations of radioligand. At the end of incubation, cells were washed three times with PBS and radioactivity was quantified by gamma counting as shown in FIGS. 4A-5B.
Radioligand binding was performed in HT-1376 urothelial cancer cells by method of kinetic analysis. Cells were seeded at 20,000 cells per well in 96-well format 48 h prior to assay. On the day of assay, culture medium was removed and PBS was added to cells. Association kinetics were measured at three concentrations of radioligand, and this was performed by the addition of lutetium-177 radioconjugates to cells at various time points from 1 to 60 minutes.

HT-1376 tumor xenograft = assay: In vivo biodistribution of 111In-labeled miniproteins by SPECT/CT, HT-1376 xenograft; set-up: species or system mouse; conditions: 111In-labeled, tumor, +4 h, HT-1376 xenograft mice
Summary of the method: (§1)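 Mice bearing HT-1376 (Nectin-4-expressing human) xenografts imaged by SPECT/CT after 111In-labeled miniprotein dosing. SPECT reported as activity; per-subject maximum intensity projections scaled in % ID/g at each time point.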

[4] = as above; set-up: species or system mouse; conditions: female, athymic nude, mouse, in vivo
Summary of the method: as §1

[5] = system: HT-1376 urothelial cancer cells; assay: In vitro cell cytotoxicity assay of 225Ac-radioconjugates (CellTiter-Glo); type: cell-based, human; conditions: compound radiolabeled with 225Ac, 24 h treatment, 4-5 day regrowth, HT-1376 cells
Protocol: Cytotoxicity to ^225Ac-radioconjugates was assessed in HT-1376 urothelial cancer cells. Cells were seeded in 96-well plates at densities of 250 to 1000 cells per well two days prior to treatment. On the day of treatment ^225Ac-radioconjugates were diluted in culture medium to concentrations ranging from 0,0001 to 100 μCi/mL and treatment solutions were incubated with cells for 24 h. At the end of the treatment period, the treatment solution was removed, and fresh culture medium was replenished for the regrowth period of the assay that lasted 4-5 day's. At the end of the regrowth period the culture medium was removed and viability was assessed by CellTiter-Glo (Promega, Waltham MA) luminescent assay and the plates were read on a Perkin Elmer Enspire multimode plate reader. Data were normalized to treatment controls and plotted as non-linear sigmoidal dose response curves to determine the effective concentration for 50% reduction in cell viability.

[6] = PhII trial, locally advanced or metastatic bladder cancer, 10.2 months median follow up

Substance: enfortumab vedotin
- Plasma terminal half-life (min) [1]: 2,476.8 (1.72 days) min

Substance: enfortumab vedotin [EV]
- Tumor volume [2]: Some reduction in tumor volume
- overall tumor objective response rate (ORR) (Nectin-4; PhI study, patients previously treated with ICI therapy): 42%
- ORR (Nectin-4; PhI study, patients with particularly high tumor burden (liver metastases)): 36%
- ORR (Nectin-4; [6]): 44%
- complete response rate (CRR) (Nectin-4; [6]): 12%

Substance: {DOTA-PEG4}-CEYDEEFFTALKRLRGGDICYYIQAKFQYLPKLCIEEILDNLGCS-OH (disulfide 1-34, 20-44 (inferred)) [Compound C117]
- Kd [3]: 2.64 nM
- Data of Biodistribution (+4 h Tumor~% ID/g) (HT-1376 tumor xenograft): 2.29 % ID/g
- tissue uptake at 4 h [4]: 150 %ID/g
- tissue uptake at 24 h [4]: 93.3 %ID/g
- EC50 (microcurie/milliliter) for 225Ac radioconjugates [5]: 0.014 microcurie/milliliter
